Assay results published in patent publication US20030078221, “High affinity nucleic acid ligands of complement system proteins” (Gilead Sciences, Inc., published 2003).

Key:
Complement C5 [1] = target: T1, Complement C5 (Homo sapiens, UniProt P01031;P01031 P01031:19-673,P01031:678-1676); assay: inhibition; inhibition of C5a release, zymosan-treated human serum; conditions: tags: Quidel
Protocol: Nucleic Acid Ligand-C5 interaction that inhibits cleavage of C5 would prevent formation of the C5b and MAC assembly. […] For this experiment, dilutions of clone C6 were incubated with whole human serum in GVB⁺⁺ (veronal-buffered saline containing calcium, magnesium and 1% gelatin) plus addition of zymosan for 30 minutes at 37° C. The samples were then quenched with EDTA-buffer and spun, and supernatants were assayed for C5a by radioimrnmunoassay (RIA) (Wagner and Hugli (1984) Anal. Biochem. 136:75).

Complement C5 [2] = target: T1, Complement C5; assay: filter; MgPBS 37C; conditions: tags: Quidel
Protocol: (§1) Individual cloned DNA was T7 transcribed with α-[³²P]-ATP and the full length [³²P]-2′-NH₂-RNA or 2′-F-RNA was gel-purified (as above). RNA was suspended at approximately 5,000 cpm per 30 μL sample (<10 pM), and aliquots were incubated with various concentrations of C1q, C3 or C5 in MgPBS for 10 minutes at 37° C. Samples were then filtered through nitrocellulose, the filters washed with buffer and dried under an infrared lamp, and counted with addition of scintillation fluid (Ecoscint A, National Diagnostics, Atlanta, Ga.). A background sample of RNA alone was run in parallel. […] Filters were washed and counted.
Sequences were grouped according to homology and function.

Complement C1q = Complement C1q (UniProt P02745;P02746;P02747 P02745:23-245,P02746:28-253,P02747:29-245); assay: filter; MgPBS 37C; text states range 0.29-3.9 nM for best ligands; conditions: tags: Quidel; chain copies: 6
Protocol: as §1

Sequence of Complement C1q (P02745 23-245, chain 1 of 3): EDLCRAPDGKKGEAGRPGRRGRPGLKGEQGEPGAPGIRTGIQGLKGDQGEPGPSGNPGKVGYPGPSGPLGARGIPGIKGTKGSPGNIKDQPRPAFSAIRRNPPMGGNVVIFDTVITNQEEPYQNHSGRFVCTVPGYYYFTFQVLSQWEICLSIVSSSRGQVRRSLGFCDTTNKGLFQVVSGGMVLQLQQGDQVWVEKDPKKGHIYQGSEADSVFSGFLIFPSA
Sequence of Complement C1q (P02746 28-253, chain 2 of 3): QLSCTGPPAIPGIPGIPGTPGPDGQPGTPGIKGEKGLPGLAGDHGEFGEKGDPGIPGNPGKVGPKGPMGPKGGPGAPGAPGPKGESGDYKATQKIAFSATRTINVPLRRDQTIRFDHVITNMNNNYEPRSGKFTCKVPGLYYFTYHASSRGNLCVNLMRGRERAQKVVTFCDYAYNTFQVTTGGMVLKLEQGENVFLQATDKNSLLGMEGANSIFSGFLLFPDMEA
Sequence of Complement C1q (P02747 29-245, chain 3 of 3): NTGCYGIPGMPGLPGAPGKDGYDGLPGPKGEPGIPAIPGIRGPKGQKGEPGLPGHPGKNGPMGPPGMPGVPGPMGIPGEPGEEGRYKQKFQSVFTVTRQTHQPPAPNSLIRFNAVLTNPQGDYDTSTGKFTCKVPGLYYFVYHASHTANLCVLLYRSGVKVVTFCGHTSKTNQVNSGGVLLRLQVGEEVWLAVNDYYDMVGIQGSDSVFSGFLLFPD

B1: C6 (ssRNA)
RNA: GGGAGGACGAUGCGGUCUCAUGCGUCGAGUGUGAGUUUACCUUCGUCAGACGACUCGCCCGA
modifications: 2'-F pyrimidines
B1 was tested, and the Ki (Complement C5 [1]) was about 100 nM and the Kd (Complement C5 [2]) was 30 nM.

B2: C1q clone 23 (ssRNA)
RNA: GGGAGGACGAUGCGGCACUCACCUUCAUAUUGGCCGCCAUCCCCAGGGUUGAGCCCAGACACAGCAGACGACUCGCCCGA
modifications: 2'-NH2 pyrimidines
With B2 the Kd (Complement C1q) was 23 nM.
